Assay results taken from patent US20250101133A1 (published 2025).
Each block holds one binder with its values, some of them ahead of it.

How the values were obtained:
Experiment in all cases: SPR
[1] = molecular target: T1, recombinant human NEDP1 protein (human, UniProt Q96LD8 1-212)
T1 chain: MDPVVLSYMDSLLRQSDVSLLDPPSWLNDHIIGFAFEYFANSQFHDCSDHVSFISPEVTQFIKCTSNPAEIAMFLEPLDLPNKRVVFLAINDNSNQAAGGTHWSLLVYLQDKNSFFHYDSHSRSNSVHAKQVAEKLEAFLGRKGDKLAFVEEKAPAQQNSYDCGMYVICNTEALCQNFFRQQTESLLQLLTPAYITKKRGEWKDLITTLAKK

Nb12 = molecular target: Nb12
Nb19 = molecular target: Nb19
Nb6 = molecular target: Nb6
Nb20 = molecular target: Nb20

B1: AbR2DP35, purified His6-tagged nanobody (VHH)
VHH: QVQLQESGGGLVQPGGSLTLSCAASGVMFSTGVMGWYRQAPGKQREAVAAITSGGLTTYKDSVKGRFAISRDNTKSTGYLQMNRLRPEDTAVYYCNVRGYWGQGTQVTVSS
Kd [1]: < 0.01 nM

B2: AbR2DP46, purified His6-tagged nanobody (VHH)
VHH: QVQLQESGGGLVQAGGSLRLSCAASGSPFSIGTMAWYRQAPGNQRASVAAITRGGATTYANSVKGRFTVSRDNAKNTVYLQMNSLKPEDTAAYYCSVWAGDRAYWGQGTQVTVSS
Kd [1]: 6.98 nM

B3: AbR2DP47, purified His6-tagged nanobody (VHH)
VHH: QVQLQESGGGLVEPGGSLRLSCAASGSISSINVMAWYRQAPGKQRESVAAISSFGITTYSETVKGRFTASRDNAKNTMYLQMNNLKPEDTAVYYCKGPNTDWGQGTQVTVSS
Kd [1]: 5.39 nM

B4: AbR2DP12, purified His6-tagged nanobody (VHH)
VHH: QVQLQESGGGLVQAGGSLRLSCAASGSTSSFNVMAWYHQAPGKQRESVASITSGGITVYRDSVKGRFAISSDNAKNTVFLQMNSLKPEDTGVYYCGGVVDGRVYRGQGTQVTVSS
Kd [1]: < 0.01 nM

Kd (Nb12): 0.33 nM
Kd (Nb19): 0.196 nM
Kd (Nb6): < 0.01 nM
Kd (Nb20): 0.203 nM
B5: human NEDP1 (enzyme)
chain: T1 chain
